Reference: PMC3814354, “Interaction of bacterial fatty-acid-displaced regulators with DNA is interrupted by tyrosine phosphorylation in the helix-turn-helix domain”
Changes are numbered by the printed parent chain.

What was measured:
Settings in all cases: protein: recombinant; tags: N-terminal 6xHis (pQE-30); chain copies: 2; label: none (ethidium bromide stain); blunt
FatR wild type = target: T1, FatR wild type (Bacillus subtilis, UniProt O08335 1-194); assay: EMSA; 120-1920 pmol protein, 30 pmol DNA (protein:DNA 4:1 to 64:1); EMSA: 100 mM Tris-HCl pH 7.5, 15 min at 37 C, 8% native PAGE in Tris-glycine (2.5 mM Tris, 192 mM glycine), ethidium bromide stain
T1 sequence: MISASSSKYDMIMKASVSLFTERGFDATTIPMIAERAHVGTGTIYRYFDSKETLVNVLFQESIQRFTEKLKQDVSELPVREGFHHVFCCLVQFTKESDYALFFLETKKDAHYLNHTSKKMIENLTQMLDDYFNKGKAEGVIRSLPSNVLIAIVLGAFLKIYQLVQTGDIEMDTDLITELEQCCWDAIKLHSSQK

FatR Y45F = target: T2, FatR Y45F (Bacillus subtilis, UniProt O08335 1-194, Y45F); assay: EMSA; 960 and 1920 pmol protein, 30 pmol DNA (up to 64:1); EMSA: 100 mM Tris-HCl pH 7.5, 15 min at 37 C, 8% native PAGE in Tris-glycine (2.5 mM Tris, 192 mM glycine), ethidium bromide stain
T2 sequence: T1 sequence with Y45F

FatR Y45E = target: T3, FatR Y45E (Bacillus subtilis, UniProt O08335 1-194, Y45E); assay: as above
T3 sequence: T1 sequence with Y45E

B1: fatR operator (BsOP1/BsOP2) (dsDNA)
DNA 1: TACGGAATGAATATTCATTCCTTT
DNA 2: AAAGGAATGAATATTCATTCCGTA
B1: binds (FatR wild type); no binding (FatR Y45F); no binding (FatR Y45E).
